assay: label from the status in PepcDB records

| Sequence | protein production |
| --- | --- |
| MSLGHGDEGITPLSSEIVNFSTTVWTDGDKDHLEKHLVENLNCIRHYPEPDAGTLRQMLAKRNSVDNNAILVTNGPTAAFYQIAQAFRGSRSLIAIPSFAEYEDACRMYEHEVCFYPSNEDIGEADFSNMDFCWLCNPNNPDGRLLQRTEILRLLNDHPDTTFVLDQSYVSFTTEEVIRPADIKGRKNLVMVYSFSHAYGIPGLRIGYIVANKDFMKRVAAFSTPWAVNALAIEAAKFILIHPAQFTLPIRKWQRNTVDFITALNRLDGVEVHPSGTTFFLLRLKKGTAAELKKYMLEEYNMLIRDASNFRGLDESYVRITTQRPAQNQLFIKALETFLEKYEGHHHHHH | not failed |
| MSLHAAAVGPSVLPDLREQVEQIIAEARRQGASACEVAVSLEQGLSTSVRQGEVETVEFNRDQGFGITLYAGQRKGSASTSATGEAAIRETVAAALAIARHTSEDECAGLADAALMARELPELDLYHPWSLSPEQAVERALACEAAAFAADKRVTKADGTTLNTHQGCRVYGNSHGFIGGYASTRHSLSCVMIAEGEGQMQRDYWYDVNRRGEALASAESIGRRAAERAASRLGARPVQTAEVPVLFAPEIAVGLFGHFLGAISGGSLYRKSSFLEGALGQRLFPEWLSIDERPHLVGALGSASFDSDGLATYAKPFVENGELVSYVLGTYSGRKLGLPSTANAGGVHNLFVSHGDEDQAALIRRMERGLLVTELMGQGVNLVTGDYSRGAAGYWVENGEIQFPVQEVTIAANLRDLFRRIVAVGKDIERRGNLHTGSVLVESMMVAGR | not failed |
| MSLHASAIESIETIIVDLPTIRPHKLAMHTMQNQTLVLIRLRCADGIEGLGESTTIGGLAYGNESPDSIKTNIDRFVAPLLIGQDASNINAAMLRLEQSIRGNTFAKSGIESALLDAQGKRLGLPVSELLGGRVRDALPVAWTLASGDTAKDIAEAQKMLDLRRHRIFKLKIGAGEVDRDLAHVIAIKKALGDSASVRVDVNQAWDEAVALRACRILGGNGIDLIEQPISRNNRAGMVRLNASSPAPIMADESIECVEDAFNLAREGAASVFALKIAKNGGPRATLRTAAIAEAAGIGLYGGTMLEGGIGTLASAHAFLTLNKLSWDTELFGPLLLTEDILAEPPVYRDFHLHVSKAPGLGLSLDEERLAFFRRDKTTPVLHHTEGHHHHHH | not failed |
| MSLHFQILLWLSILFIIAGTILLVTMLKTKKEERKESYLGFTVIFLIFGFAILIYTFIFGIL | failed |
| MSLIDLYDLRMPQRTGTYVLHEENLAIIETGPSPSVPHLLAGLKALHIDPADIRYIIVTHIHLDHAGGVGVLLEHCPNATVIVHPKGKRHLADPSRLIAGAKAVYGEQFDALFDPIVPVPEERLLVKEDGETLVLSAERTLTFYDTPGHANHHFSIYDSYSGGVFTGDTIGVFYPQLQEAGLAFCLPSTSPNQFNPEAMKQSAERLEKLNPTRIYFGHFGALDQPEEAFRQLRFWLPKFVAAGKEVIARHPEAPAAEQAKAVTKLLHNDITAFLNECSIPASSPVYKVIELDLQVCAMGIIDYWRKQRLEHHHHHH | failed |
| MSLIPKFREFDRERHRTDYQKGMSYAEQQDFDMGFTIWFDHIEDLDLIEKDGTINRIVMMSTGLKDKNVKEIYESDIVRNLYGELYVVEWLDGSFVLTEFYNGGYDHYIIDSSTEYEVLGNIYENPELLEDDNHASNEGHHHHHH | not failed |
| MSLIYAQILAGGKGTRMGNVSMPKQFLPLNGKPIIVHTVEKFILNTRFDKILISSPKEWMNHAEDNIKKYISDDRIVVIEGGEDRNETIMNGIRFVEKTYGLTDDDIIVTHDAVRPFLTHRIIEENIDAALETGAVDTVIEALDTIVESSNHEVITDIPVRDHMYQGQTPQSFNMKKVFNHYQNLTPEKKQILTDACKICLLAGDDVKLVKGEIFNIKITTPYDLKVANAIIQERIANEGHHHHHH | not failed |
| MSLKAIGFEQPFKLSDGNLFKTFNLDIPEPKVHEILVKIQSISVNPVDTKQRLMDVSKAPRVLGFDAIGVVESVGNEVTMFNQGDIVYYSGSPDQNGSNAEYQLINERLVAKAPKNISAEQAVSLPLTGITAYETLFDVFGISRNRNENEGKTLLIINGAGGVGSIATQIAKAYGLRVITTASRNETIEWTKKMGADIVLNHKESLLNQFKTQGIELVDYVFCTFNTDMYYDDMIQLVKPRGHIATIVAFENDQDLNALKPKSLSFSHEFMFARPLNQTDDMIKHHEYLEDITNKVEQNIYQPTTTKVIEGLTTENIYQAHQILESNTMIGKLVINLNEGHHHHHH | not failed |
| MSLKARLALFFALSIGLALFFQGALSYVAFKGLLEADLDRSLLFYARALAEGRPSPRGEFAFRLAQGGAETKSPNFPDLPPLAPGRYWKEGWRVWVLEAPGGTLTVARYEPEALLALSRFRLVLFASGAALTLAFALLAGHLAGVALRPLSRLTEVARRVADSQDLSHRVPPEGGGELKTLAEAFNHMLERLEAFLEREKRFTRDAAHELRTPVAAALAQLEAAEGGYLSEGEALQATKEELLRMKRLVEALLVLAREGRVTPVPLDLAALAREEARAFGVPYRGPETLPYEGDPLLLAQALRNLLRNAFLHGEGKGVEVRLSQEGEDLVLEVKDEGPGMPEEALKEAGRPFFRASPKPGEGLGLSVAKKVAEAHGGALVLVPRKPTGLTARLLLPANPRLTGTP | failed |
| MSLKDMIDSIEQFAQTQADFPVYDCLGERRTYGQLKRDSDSIAAFIDSLALLAKSPVLVFGAQTYDMLATFVALTKSGHAYIPVDVHSAPERILAIIEIAKPSLIIAIEEFPLTIEGISLVSLSEIESAKLAEMPYERTHSVKGDDNYYIIFTSGTTGQPKGVQISHDNLLSFTNWMIEDAAFDVPKQPQMLAQPPYSFDLSVMYWAPTLALGGTLFALPKELVADFKQLFTTIAQLPVGIWTSTPSFADMAMLSDDFCQAKMPALTHFYFDGEELTVSTARKLFERFPSAKIINAYGPTEATVALSAIEITREMVDNYTRLPIGYPKPDSPTYIIDEDGKELSSGEQGEIIVTGPAVSKGYLNNPEKTAEAFFTFKGQPAYHTGDIGSLTEDNILLYGGRLDFQIKYAGYRIELEDVSQQLNQSPMVASAVAVPRYNKEHKVQNLLAYIVVKDGVKERFDRELELTKAIKASVKDHMMSYMMPSKFLYRDSLPLTPNGKIDIKTLINEVNNREGHHHHHH | not failed |
| MSLKIIAPTDKTITPSGTWSIGARAGDFVFIGGMHGTDRVTGKMVDGDEARIRRMFDNMLAAAEAAGATKADAVRLTVFVTDVAKYRPVVNKVQKDIWGDGPYPPRTVLQVPALDQGDIAEIDGTFYAPAEGHHHHHH | not failed |
| MSLKKYQLVIVGYGGMGSYHVTLASAADNLEVHGVFDILAEKREAAAQKGLKIYESYEAVLADEKVDAVLIATPNDSHKELAISALEAGKHVVCEKPVTMTSEDLLAIMDVAKRVNKHFMAHQNRRWDEDFLIIKEMFEQKTIGEMFHLESRVHGANGIPGDWRHLKAHGGGMVLDWGVHLLDQLLFLVDSNVKSVSANLSFALGDEVDDGFVTFITFENGITAQIEVGTTNFIKLPRWYVKGTEGTGIIHDWDLSGEIVKPTALAKTSEPTPIKAGQGLTKTMAPPSEEATNTLSLPAPAKLAPSFYNNFVDVLNNTSEPIVQNEEVYQVLKLIEAIFEAAETNRTVHSIEGHHHHHH | not failed |
| MSLKNKLQVKIPGKLYVAGEYAVVESGHTAILTAVNRYITLTLEDSERNELWIPHYENPVSWPIGGELKPDGEHWTFTAEAINIATTFLKSEGIELTPVKMVIETELIDQSGAKYGLGSSAAATVAVINALMTKFYPEISMLKKFKLAALSHLVVQGNGSCGDIASCMYGGWIAYTTFDQEWVKHRLAYKSLEWFMKEPWPMLQIETLEEPVPTFSVGWTGTPVSTGKLVSQIHAFKQEDSKNYQHFLTRNNEIMKQIIQAFHTKDEELLYSSIKENRRILQELGTKAGVNIETSLLKELADSAENMGGAGKSSGSGGGDCGIAFSKTKELAEKLVNEWEKLGIKHLPFHTGRVQITEGHHHHHH | not failed |
| MSLKTNFVKYERKDNKDLCEITLENDAGMAVKVLNYGATLEKVLLDGENMILSLNSPEDYSKERNFLGGTVGRIAGRVRAGQWKHGNEIHQLPLNDGDNHIHGGIGTDMHVWDFRPSCDSEHARVDLTLFDPDGNNDYPGNLKLHARYELDNENNLHYLLEAVSDKLTIFNPVNHTYFNLGERAEDLNLQMNADYYLPVDEAGLPDRGMAEVAGTAFDFRKTKRIGDALNSDDSQIKLRNGLDHPFILNGNNPAALLSSNKHRLIVKTNAPALVLYAGNHFNHTGIVNNIGQYDGITFEAQCPPAEGNDLGQITLLPFEKFKRTVDWKFEEGHHHHHH | not failed |

From a protein production outcome set (Wang et al. 2014)
